Data taken from publication PMC3154745.

Target: Full length mammalian HP1β (human or mouse (sequences identical)) (UniProt P83916)
Experiment: AUC

Chain of Full length mammalian HP1β, P83916 1-185 (natural protein; other documents disagree on this pair) (P83916 whole entry): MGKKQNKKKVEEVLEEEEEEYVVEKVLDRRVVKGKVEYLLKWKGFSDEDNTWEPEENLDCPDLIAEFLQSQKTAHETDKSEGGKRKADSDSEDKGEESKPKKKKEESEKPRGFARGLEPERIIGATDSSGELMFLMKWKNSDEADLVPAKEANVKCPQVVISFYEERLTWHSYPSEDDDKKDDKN

Kd: 0.5 µM
Substance: Full length mammalian HP1β, P83916 1-185 (natural protein; other documents disagree on this pair)
